Results published in the RNAGym collection of RNA variant scans (doi:10.7554/elife.90254).

B1: OR4K15 (parent)
chain: GUUAACGGUCAUAGGCCAUGGAAACUAGGAGCACCAUUUCGCUGCCAGUGAAGAAAUGAACAAAGAAAAUCUGGGCCAGGCAGGCAUCAAAAGAAAUAGUCUUGCGCUCAACCAGAAAGUCUGUAAUCAUUUUAAGGGUA

Variants of: B1
Assay: self-cleavage, relative activity (ratio to wild type); higher = more cleavage; in vitro, sequencing; the parent is a self-cleaving ribozyme

Variant	self-cleavage
GUUAACGGUCAUAGGCCAUGGAAACUGGGAGCACCAUUUCGCUGCCAGUGAAGAAAUGAACAAAGAAAAUAUGGGCCAGGCAGGCAUCAAAAGAAAUAGUCUUGCGCUCAACCAGAAAGUCUGUAAUCAUUUUAAGGGUA [A27G C71A]	0.66
GUUAACGGUCAUAGGCCAUGGAAACUGGGAGCACCAUUUCGCUGCCAGUGAAGAAAUGAACAAAGAAAAUCUGGGCCAGGCAGGCAUCAAAAGAAAUAGUCUUGCGCUCAACCAGAAAGUCUUUAAUCAUUUUAAGGGUA [A27G G123U]	1.67
GUUAACGGUCAUAGGCCAUGGAAACUGGGAGCACCAUUUCGCUGCCAGUGAAGAAAUGAACAAAGAAAAUCUGGGCCAGGCAGGCAUCAAAAGAAAUAGUCUUACGCUCAACCAGAAAGUCUGUAAUCAUUUUAAGGGUA [A27G G104A]	0.02
GUUAACGGUCAUAGGCCAUGGAAACUGGGAGCACCAUUUCGCCGCCAGUGAAGAAAUGAACAAAGAAAAUCUGGGCCAGGCAGGCAUCAAAAGAAAUAGUCUUGCGCUCAACCAGAAAGUCUGUAAUCAUUUUAAGGGUA [A27G U43C]	1.41
GUUAACGGUCAUAGGCCAUGGAAACUGGGAGCACCAUUUCGCUGCCAGUGAAGAAAUGAACAAAGAAAAUCUGGGCCAGGCAGGCAUCAAAAGAAAUAGUCUUGAGCUCAACCAGAAAGUCUGUAAUCAUUUUAAGGGUA [A27G C105A]	0.04
GUUAACGGUCAUAGGCCAUGGAAACUGGGAGCACCAUUUCGCUGCCAGUGAAGAAAUGAACAAAGAAAAUCUGGGCCAGGCAGGCAUCAAAAGAAAAAGUCUUGCGCUCAACCAGAAAGUCUGUAAUCAUUUUAAGGGUA [A27G U97A]	1.24
GUUAACGGUCAUAGGCCAUGGAAACUGGGAGCACCAUUUCGCUGCCAGUGAAGAAAUGAACAAAGAAAAUCUGGGCCAGGCAGGCAUCAAAAGACAUAGUCUUGCGCUCAACCAGAAAGUCUGUAAUCAUUUUAAGGGUA [A27G A95C]	0.48
GUUAACGGUCAUAGGCCAUGGAAACUGGGAGCACCAUUUCGCUGCCAGUGAAGAAAUGAACAAAGAAAAUCUGGGCCAGGCAGGCAUCAAAAGAAAUAGUCUUGCGCUCAACCAGAAGGUCUGUAAUCAUUUUAAGGGUA [A27G A118G]	0.47
GUUAACGGUCAUAGGCCAUGGAAACUGGGAGCACCAUUUCGCUGCCAGUGAAGAAAUGAACAAAGAAAAUCUGGGCCAGGCAGGCAUCAAAAGAAAUAGUCUUGCGCUCAACCAGAAUGUCUGUAAUCAUUUUAAGGGUA [A27G A118U]	0.36
GUUAACGGUCAUAGGCCAUGGAAACUGGGAGCACCAUUUCGCUGCCAGUGAAGAAAUGAACAAAGAAAAUCUGGGCCAGGCGGGCAUCAAAAGAAAUAGUCUUGCGCUCAACCAGAAAGUCUGUAAUCAUUUUAAGGGUA [A27G A82G]	0.33
GUUAACGGUCAUAGGCCAUGGAAACUGGGAGCACCAUUUCGCUGCCAGUGAAGAAAUGAACAAAGAAAAUCUGGGCCAGGCAGGCAUCAAAAGAAAUAGUCUUGCGCUCAACCAGAAAGUCUGUAAUCAUUUUAAGGGUG [A27G A140G]	1
GUUAACGGUCAUAGGCCAUGGAAACUGGGAGCACCAUUUCGCUGCCAGUGAAGAAAUGAACAAAGAAAAUCUGGGCCAGGCAGGCAUCAAAAGAAAUAGUCUUGCGCUCAACCUGAAAGUCUGUAAUCAUUUUAAGGGUA [A27G A114U]	0.16
GUUAACGGUCAUAGGCCAUGGAAACUGGGAGCACCAUUUCGCUGCCAGUGAAGAAAUGAACAAAGAAAAUCUGGGCCAGGCAGGCAUCAAAAGAAAUAGUCUUGCGCCCAACCAGAAAGUCUGUAAUCAUUUUAAGGGUA [A27G U108C]	0.02
GUUAACGGUCAUAGGCCAUGGAAACUGGGAGCACCAUUUCGCUGCCAGUGAAGAAAUGAACAAAGAAAAUCUGGGCCAGGCAGGCAUCAAAAGAAAUAGUCUUGCGCUCAACCAGAAAGUCUGUAGUCAUUUUAAGGGUA [A27G A126G]	0.8
GUUAACGGUCAUAGGCCAUGGAAACUGGGAGCACCAUUUCGCUGCCAGUGAAGAAAUGAACAAAGAAAAUCUGGGCCAGGCAGGCAUCAAAAGAAAUAGUCUUGCGCUCAACCAGAAAGUCUGUGAUCAUUUUAAGGGUA [A27G A125G]	0.26
GUUAACGGUCAUAGGCCAUGGAAACUGGGAGCACCAUUUCGCUGCCAGUGAAGAAAUGAACAAAGAAAAUCUGGGCCAGGCAGGCAUCAAAAGAAAUAGUCUUGCGCUCAACCAGAAAGUCUGUUAUCAUUUUAAGGGUA [A27G A125U]	1.41
GUUAACGGUCAUAGGCCAUGGAAACUGGGAGCACCAUUUCGCUGCCAGUAAAGAAAUGAACAAAGAAAAUCUGGGCCAGGCAGGCAUCAAAAGAAAUAGUCUUGCGCUCAACCAGAAAGUCUGUAAUCAUUUUAAGGGUA [A27G G50A]	2.45
GUUAACGGUCAUAGGCCAUGGAAACUGGGAGCACCAUUUCGCUGCCAGUGAAGAAAUGAACAAAGAAAAUCUGGGCCAGGCAGGCAUCAAAAGAAAUAGUCUUGCGCUCAACCAGAAAGUCUGUAAUCGUUUUAAGGGUA [A27G A129G]	1.06
GUUAACGGUCAUAGGCCAUGGAAACUGGGAGCACCAUUUCGCUGCCAGUGAAGAAAUGAACAAAGAAAAUCUGGGCCAGGCAGGCAUCUAAAGAAAUAGUCUUGCGCUCAACCAGAAAGUCUGUAAUCAUUUUAAGGGUA [A27G A89U]	2
GUUAACGGUCAUAGGCCAUGGAAACUGGGAGCACCAUUUCGCUGCCAGUGAAGAAAUGAACAAAGAAAAUCUGGGCCAGGCAGGCAUCAAAAGAAAUAGUCCUGCGCUCAACCAGAAAGUCUGUAAUCAUUUUAAGGGUA [A27G U102C]	1.06
GUUAACGGUCAUAGGCCAUGGAAACUGGGAGCACCAUUUCGCUGCCAGUGAAGAAAUGAACAAAGAAAAUCUGGGCCAGGCAGGCAUCAAAAGAAAUGGUCUUGCGCUCAACCAGAAAGUCUGUAAUCAUUUUAAGGGUA [A27G A98G]	0.77

Variant	self-cleavage
GUUAACGGUCAUAGGCCAUGGAAACUGGGAGCACCAUUUCGCUGCCAGUGAAGAAAUGAACAAAGAAAAUCUGGGCCAGGCAGGCAUCAAAAGAAAUAGUCUUGCGCUCAACCAGAAAGUCUGCAAUCAUUUUAAGGGUA [A27G U124C]	0.9
GUUAACGGUCAUAGGCCAUGGAAACUGGGAGCACCAUUUCGCUGCCAGUGAAGAAAUGAACAAAGAAAAUCUGGGCCAGGCAGGCAUCAAACGAAAUAGUCUUGCGCUCAACCAGAAAGUCUGUAAUCAUUUUAAGGGUA [A27G A92C]	1.36
GUUAACGGUCAUAGGCCAUGGAAACUGGGAGCACCAUUUCGCUGCCAGUGAAGAAAUGAACAAAGAAAAUCUGGGCCAGGCAGGCAUCAAAAGAAAUAGUCUUGCGCUCAACCAGAGAGUCUGUAAUCAUUUUAAGGGUA [A27G A117G]	1.15
GUUAACGGUCAUAGGCCAUGGAAACUGGGAGCACCAUUUCGCUGCCAGUGAAGAAAUGAACAAAGAAAAUCUGGGCCAGGCAGGCAUCAAAAGAAAUAGUCUUGCGCUCAACCAGAUAGUCUGUAAUCAUUUUAAGGGUA [A27G A117U]	0.53
GUUAACGGUCAUAGGCCAUGGAAACUGGGAGCACCAUUUCGCUGCCAGUGAAGAAAUGAACAAAGAAAAUCUGGGCCAGGCAGGCAUCAAAAGAAAUAGUCUUGCGCUCAACCAGUAAGUCUGUAAUCAUUUUAAGGGUA [A27G A116U]	0.05
GUUAACGGUCAUAGGCCAUGGAAACUGGGAGCACCAUUUCGCUGCCAGUGAAGAAAUGAACAAAGAAAAUCUGGGCCAGGCAGGCAUCAAAAGAAAUAGUCUUGCGCUCCACCAGAAAGUCUGUAAUCAUUUUAAGGGUA [A27G A110C]	0.43
GUUAACGGUCAUAGGCCAUGGAAACUGGGAGCACCAUUUCGCUGCCAGUGAAGAAAUGAACAAAGAAAAUCUGGGCCAGGCAGGCAUCAAAAGAAAUAGUCUUGCGCUCGACCAGAAAGUCUGUAAUCAUUUUAAGGGUA [A27G A110G]	0.1
GUUAACGGUCAUAGGCCAUGGAAACUGGGAGCACCAUUUCGCUGCCAGUGAAGAAAUGAACAAAGAAAAUCUGGGCCAGGCAGGCAUCAAAAGAAGUAGUCUUGCGCUCAACCAGAAAGUCUGUAAUCAUUUUAAGGGUA [A27G A96G]	1.1
GUUAACGGUCAUAGGCCAUGGAAACUGGGAGCACCAUUUCGCUGCCAGUGAAGAAAUGAACAAAGAAAACCUGGGCCAGGCAGGCAUCAAAAGAAAUAGUCUUGCGCUCAACCAGAAAGUCUGUAAUCAUUUUAAGGGUA [A27G U70C]	0.56
GUUAACGGUCAUAGGCCAUGGAAACUGGGAGCACCAUUUCGCUGCCAGUGAAGAAAUGAACAAAGAAAAUCUGGGCCAGGCAGGCAUCAAAAGAAAUAGUCUAGCGCUCAACCAGAAAGUCUGUAAUCAUUUUAAGGGUA [A27G U103A]	0.45
GUUAACGGUCAUAGGCCAUGGAAACUGGGAGCACCAUUUCGCUGCCAGUGAAGAAAUGAACAAAGAAAAUCUGGGCCAGGCAGGCAUCAAAAGAAAUAGUCUUGCGCUCAACCAGAAAGUCUGUAAUCAUGUUAAGGGUA [A27G U131G]	1.09
GUUAACGGUCAUAGGCCAUGGAAACUGGGAGCACCAUUUCGCUGCCAGUGAAGAAAUGAACAAAGAAAAUCUGGGCCAGGCAGGCAUCAAAAGAAAUAGUCUUGCGCUCAACCAGAAAGUCUGUAAUCAUUUUAGGGGUA [A27G A135G]	0.84
GUUAACGGUCAUAGGCCAUGGAAACUGGGAGCACCAUUUCGCUACCAGUGAAGAAAUGAACAAAGAAAAUCUGGGCCAGGCAGGCAUCAAAAGAAAUAGUCUUGCGCUCAACCAGAAAGUCUGUAAUCAUUUUAAGGGUA [A27G G44A]	1.52
GUUAACGGUCAUAGGCCAUGGAAACUGGGAGCACCAUUUCGCUGCCAGUGAAGAAAUGAACAAAGAAAAUCUGGGCCAGGCAGGCAUCAACAGAAAUAGUCUUGCGCUCAACCAGAAAGUCUGUAAUCAUUUUAAGGGUA [A27G A91C]	1.42
GUUAACGGUCAUAGGCCAUGGAAACUGGGAGCACCAUUUCGCUGCCAGUGAAGAAAUGAACAAAGAAAAUCUGGGCCAGGCAGGCAUCAAGAGAAAUAGUCUUGCGCUCAACCAGAAAGUCUGUAAUCAUUUUAAGGGUA [A27G A91G]	1.22
GUUAACGGUCAUAGGCCAUGGAAACUGGGAGCACCAUUUCGCUGCCAGUGAAGAAAUGAACAAAGAAAAUCUGGGCCAGGCAGGCAUCAAAAGAAAUAGUCUUGCGCUCAUCCAGAAAGUCUGUAAUCAUUUUAAGGGUA [A27G A111U]	0.04
GUUAACGGUCAUAGGCCAUGGAAACUGGGAGCACCAUUUCGCUGCCAGUGAAGAAAUGAACAAAGAAAAUCUGGGCCAGGCAGGCAUCAAAAGAAAUAGCCUUGCGCUCAACCAGAAAGUCUGUAAUCAUUUUAAGGGUA [A27G U100C]	1.8
GUUAACGGUCAUAGGCCAUGGAAACUGGGAGCACCAUUUCGCUGCCAGUGAAGAAACGAACAAAGAAAAUCUGGGCCAGGCAGGCAUCAAAAGAAAUAGUCUUGCGCUCAACCAGAAAGUCUGUAAUCAUUUUAAGGGUA [A27G U57C]	0.49
GUUAACGGUCAUAGGCCAUGGAAACUGGGAGCACCACUUCGCUGCCAGUGAAGAAAUGAACAAAGAAAAUCUGGGCCAGGCAGGCAUCAAAAGAAAUAGUCUUGCGCUCAACCAGAAAGUCUGUAAUCAUUUUAAGGGUA [A27G U37C]	1.27
GUUAACGGUCAUAGGCCAUGGAAACUGGGAGCACCAUUUCGCUGCCAGUGAAGAAAUGAACAAAGAAAAUCUGGGCCAGGCAGGCAUCAGAAGAAAUAGUCUUGCGCUCAACCAGAAAGUCUGUAAUCAUUUUAAGGGUA [A27G A90G]	1.41
